T1: APBA3_2, O96018
T1 sequence (O96018 480-570, limits assumed, looked up): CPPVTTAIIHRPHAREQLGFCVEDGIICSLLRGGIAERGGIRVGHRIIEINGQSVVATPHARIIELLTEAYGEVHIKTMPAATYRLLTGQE

T2: GIPC1, O14908
T2 sequence (O14908 128-223, limits assumed, looked up): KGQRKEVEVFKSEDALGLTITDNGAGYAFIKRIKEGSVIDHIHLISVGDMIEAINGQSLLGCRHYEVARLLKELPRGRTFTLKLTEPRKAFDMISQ

T3: MAGI2_1, Q86UL8
T3 sequence (Q86UL8 12-111, limits assumed, looked up): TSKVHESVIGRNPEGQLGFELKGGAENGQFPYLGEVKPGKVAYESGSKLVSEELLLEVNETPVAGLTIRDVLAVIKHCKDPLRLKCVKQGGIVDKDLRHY

T4: MPDZ_11, O75970
T4 sequence (O75970 1720-1817, limits assumed, looked up): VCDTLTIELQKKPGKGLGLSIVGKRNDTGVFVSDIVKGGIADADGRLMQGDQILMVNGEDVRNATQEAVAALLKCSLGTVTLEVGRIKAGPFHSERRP

T5: NHERF3_2, Q5T2W1
T5 sequence (Q5T2W1 129-225, limits assumed, looked up): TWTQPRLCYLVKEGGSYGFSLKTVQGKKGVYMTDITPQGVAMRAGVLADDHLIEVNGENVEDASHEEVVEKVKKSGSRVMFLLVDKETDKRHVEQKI

T6: PARD6G, Q9BYG4
T6 sequence (Q9BYG4 153-261, limits assumed, looked up): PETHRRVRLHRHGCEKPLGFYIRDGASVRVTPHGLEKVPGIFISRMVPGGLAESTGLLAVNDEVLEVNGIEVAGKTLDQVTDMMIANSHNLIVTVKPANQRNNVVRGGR

T7: PDZD2_3, O15018
T7 sequence (O15018 581-682, limits assumed, looked up): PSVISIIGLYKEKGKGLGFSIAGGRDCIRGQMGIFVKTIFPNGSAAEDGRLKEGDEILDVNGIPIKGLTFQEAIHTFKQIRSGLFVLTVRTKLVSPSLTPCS

T8: PDZD2_6, O15018
T8 sequence (O15018 2745-2839, limits assumed, looked up): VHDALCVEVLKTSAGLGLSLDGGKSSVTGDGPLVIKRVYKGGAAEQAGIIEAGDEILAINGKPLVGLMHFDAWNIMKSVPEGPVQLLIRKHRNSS

T9: PDZD7_1, Q9H5P4
T9 sequence (Q9H5P4 81-178, limits assumed, looked up): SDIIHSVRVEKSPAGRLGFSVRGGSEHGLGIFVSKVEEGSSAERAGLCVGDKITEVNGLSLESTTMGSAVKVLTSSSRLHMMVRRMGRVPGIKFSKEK

T10: PREX2_2, Q70Z35
T10 sequence (Q70Z35 672-764, limits assumed, looked up): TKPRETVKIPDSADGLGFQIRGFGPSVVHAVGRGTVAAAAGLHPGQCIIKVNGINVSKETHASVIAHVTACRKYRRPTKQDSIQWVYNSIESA

T11: SHROOM3, Q8TF72
T11 sequence (Q8TF72 20-120, limits assumed, looked up): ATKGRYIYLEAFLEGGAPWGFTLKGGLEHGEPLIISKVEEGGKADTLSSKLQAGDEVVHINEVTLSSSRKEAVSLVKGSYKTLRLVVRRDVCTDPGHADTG

T12: USH1C_2, Q9Y6N9
T12 sequence (Q9Y6N9 206-303, limits assumed, looked up): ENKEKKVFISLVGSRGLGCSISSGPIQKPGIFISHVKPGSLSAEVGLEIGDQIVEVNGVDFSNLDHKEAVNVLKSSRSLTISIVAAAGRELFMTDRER


molecular target: T1, APBA3_2, O96018; assay: holdup assay; parameters: key: below the threshold = too weak to quantify, mostly under pKd 3.1 to 4; details: plain residues with an end cap or a label only (N-terminal biotin on a linker: ttds)

Binder | pKd
SRSRRRETAL [HPV33-E6, P06427] | 4.28

molecular target: CARD14, Q9BXL6; assay: holdup assay; parameters: key: below the threshold = too weak to quantify, mostly under pKd 3.1 to 4; details: plain residues with an end cap or a label only (N-terminal biotin on a linker: ttds)
Sequence (Q9BXL6 558-663): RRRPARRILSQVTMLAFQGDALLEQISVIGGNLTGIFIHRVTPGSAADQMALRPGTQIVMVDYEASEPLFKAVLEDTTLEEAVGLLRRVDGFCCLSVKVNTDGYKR

Binder | pKd
KLVIKTETTV [RASSF6, Q6ZTQ3] | below the threshold
SRSRRRETAL [HPV33-E6, P06427] | below the threshold

molecular target: DLG5_2, Q8TDM6; assay: holdup assay; parameters: key: below the threshold = too weak to quantify, mostly under pKd 3.1 to 4; details: plain residues with an end cap or a label only (N-terminal biotin on a linker: ttds)
Sequence (Q8TDM6 714-800): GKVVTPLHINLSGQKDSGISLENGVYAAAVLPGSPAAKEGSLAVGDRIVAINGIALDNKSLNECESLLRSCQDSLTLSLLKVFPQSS

Binder | pKd
KLVIKTETTV [RASSF6, Q6ZTQ3] | 4.33
SRSRRRETAL [HPV33-E6, P06427] | 4.78

molecular target: T2, GIPC1, O14908; assay: holdup assay; parameters: key: below the threshold = too weak to quantify, mostly under pKd 3.1 to 4; details: plain residues with an end cap or a label only (N-terminal biotin on a linker: ttds)

Binder | pKd
KLVIKTETTV [RASSF6, Q6ZTQ3] | 4.57
SRSRRRETAL [HPV33-E6, P06427] | below the threshold

molecular target: LIMK1, P53667; assay: holdup assay; parameters: key: below the threshold = too weak to quantify, mostly under pKd 3.1 to 4; details: plain residues with an end cap or a label only (N-terminal biotin on a linker: ttds)
Sequence (P53667 155-268): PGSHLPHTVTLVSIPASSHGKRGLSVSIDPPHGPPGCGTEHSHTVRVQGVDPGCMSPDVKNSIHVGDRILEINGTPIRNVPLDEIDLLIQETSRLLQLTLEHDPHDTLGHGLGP

Binder | pKd
KLVIKTETTV [RASSF6, Q6ZTQ3] | 4.37
SRSRRRETAL [HPV33-E6, P06427] | below the threshold

molecular target: MAGI1_5, Q96QZ7; assay: holdup assay; parameters: key: below the threshold = too weak to quantify, mostly under pKd 3.1 to 4; details: plain residues with an end cap or a label only (N-terminal biotin on a linker: ttds)
Sequence (Q96QZ7 986-1098): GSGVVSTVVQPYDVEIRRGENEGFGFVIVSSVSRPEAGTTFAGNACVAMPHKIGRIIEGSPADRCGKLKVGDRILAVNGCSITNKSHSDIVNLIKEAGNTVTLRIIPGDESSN

Binder | pKd
KLVIKTETTV [RASSF6, Q6ZTQ3] | 4.23
SRSRRRETAL [HPV33-E6, P06427] | below the threshold

molecular target: T3, MAGI2_1, Q86UL8; assay: holdup assay; parameters: key: below the threshold = too weak to quantify, mostly under pKd 3.1 to 4; details: plain residues with an end cap or a label only (N-terminal biotin on a linker: ttds)

Binder | pKd
KLVIKTETTV [RASSF6, Q6ZTQ3] | below the threshold
SRSRRRETAL [HPV33-E6, P06427] | below the threshold

molecular target: MAGI3_5, Q5TCQ9; assay: holdup assay; parameters: key: below the threshold = too weak to quantify, mostly under pKd 3.1 to 4; details: plain residues with an end cap or a label only (N-terminal biotin on a linker: ttds)
Sequence (Q5TCQ9 847-941): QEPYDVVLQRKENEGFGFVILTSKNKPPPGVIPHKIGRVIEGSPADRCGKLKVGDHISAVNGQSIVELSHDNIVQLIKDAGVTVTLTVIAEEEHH

Binder | pKd
KLVIKTETTV [RASSF6, Q6ZTQ3] | below the threshold
SRSRRRETAL [HPV33-E6, P06427] | below the threshold

molecular target: MAGI3_6, Q5TCQ9; assay: holdup assay; parameters: key: below the threshold = too weak to quantify, mostly under pKd 3.1 to 4; details: plain residues with an end cap or a label only (N-terminal biotin on a linker: ttds)
Sequence (Q5TCQ9 1014-1103): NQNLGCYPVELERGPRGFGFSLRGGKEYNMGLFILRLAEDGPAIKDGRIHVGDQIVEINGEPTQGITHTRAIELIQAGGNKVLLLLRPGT

Binder | pKd
KLVIKTETTV [RASSF6, Q6ZTQ3] | 4.15
SRSRRRETAL [HPV33-E6, P06427] | below the threshold

molecular target: T4, MPDZ_11, O75970; assay: holdup assay; parameters: key: below the threshold = too weak to quantify, mostly under pKd 3.1 to 4; details: plain residues with an end cap or a label only (N-terminal biotin on a linker: ttds)

Binder | pKd
KLVIKTETTV [RASSF6, Q6ZTQ3] | below the threshold
SRSRRRETAL [HPV33-E6, P06427] | below the threshold

molecular target: T5, NHERF3_2, Q5T2W1; assay: holdup assay; parameters: key: below the threshold = too weak to quantify, mostly under pKd 3.1 to 4; details: plain residues with an end cap or a label only (N-terminal biotin on a linker: ttds)

Binder | pKd
KLVIKTETTV [RASSF6, Q6ZTQ3] | below the threshold
SRSRRRETAL [HPV33-E6, P06427] | below the threshold

molecular target: O00233; assay: holdup assay; parameters: key: below the threshold = too weak to quantify, mostly under pKd 3.1 to 4; details: plain residues with an end cap or a label only (N-terminal biotin on a linker: ttds)

Binder | pKd
KLVIKTETTV [RASSF6, Q6ZTQ3] | below the threshold

molecular target: PARD3_1, Q8TEW0; assay: holdup assay; parameters: key: below the threshold = too weak to quantify, mostly under pKd 3.1 to 4; details: plain residues with an end cap or a label only (N-terminal biotin on a linker: ttds)
Sequence (Q8TEW0 264-372): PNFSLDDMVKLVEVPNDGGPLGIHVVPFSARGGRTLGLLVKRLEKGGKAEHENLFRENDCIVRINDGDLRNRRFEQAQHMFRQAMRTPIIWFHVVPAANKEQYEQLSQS

Binder | pKd
KLVIKTETTV [RASSF6, Q6ZTQ3] | below the threshold
SRSRRRETAL [HPV33-E6, P06427] | below the threshold

molecular target: T6, PARD6G, Q9BYG4; assay: holdup assay; parameters: key: below the threshold = too weak to quantify, mostly under pKd 3.1 to 4; details: plain residues with an end cap or a label only (N-terminal biotin on a linker: ttds)

Binder | pKd
KLVIKTETTV [RASSF6, Q6ZTQ3] | below the threshold
SRSRRRETAL [HPV33-E6, P06427] | below the threshold

molecular target: T7, PDZD2_3, O15018; assay: holdup assay; parameters: key: below the threshold = too weak to quantify, mostly under pKd 3.1 to 4; details: plain residues with an end cap or a label only (N-terminal biotin on a linker: ttds)

Binder | pKd
KLVIKTETTV [RASSF6, Q6ZTQ3] | below the threshold
SRSRRRETAL [HPV33-E6, P06427] | below the threshold

molecular target: T8, PDZD2_6, O15018; assay: holdup assay; parameters: key: below the threshold = too weak to quantify, mostly under pKd 3.1 to 4; details: plain residues with an end cap or a label only (N-terminal biotin on a linker: ttds)

Binder | pKd
KLVIKTETTV [RASSF6, Q6ZTQ3] | below the threshold
SRSRRRETAL [HPV33-E6, P06427] | below the threshold

molecular target: T9, PDZD7_1, Q9H5P4; assay: holdup assay; parameters: key: below the threshold = too weak to quantify, mostly under pKd 3.1 to 4; details: plain residues with an end cap or a label only (N-terminal biotin on a linker: ttds)

Binder | pKd
KLVIKTETTV [RASSF6, Q6ZTQ3] | below the threshold
SRSRRRETAL [HPV33-E6, P06427] | below the threshold

molecular target: PDZD9, Q8IXQ8; assay: holdup assay; parameters: key: below the threshold = too weak to quantify, mostly under pKd 3.1 to 4; details: plain residues with an end cap or a label only (N-terminal biotin on a linker: ttds)
Sequence (Q8IXQ8 23-120): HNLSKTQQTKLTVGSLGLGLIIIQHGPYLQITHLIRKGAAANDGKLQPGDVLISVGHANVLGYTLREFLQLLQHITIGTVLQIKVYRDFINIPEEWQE

Binder | pKd
KLVIKTETTV [RASSF6, Q6ZTQ3] | below the threshold
SRSRRRETAL [HPV33-E6, P06427] | below the threshold

molecular target: T10, PREX2_2, Q70Z35; assay: holdup assay; parameters: key: below the threshold = too weak to quantify, mostly under pKd 3.1 to 4; details: plain residues with an end cap or a label only (N-terminal biotin on a linker: ttds)

Binder | pKd
KLVIKTETTV [RASSF6, Q6ZTQ3] | below the threshold
SRSRRRETAL [HPV33-E6, P06427] | below the threshold

molecular target: Q8TB45; assay: holdup assay; parameters: key: below the threshold = too weak to quantify, mostly under pKd 3.1 to 4; details: plain residues with an end cap or a label only (N-terminal biotin on a linker: ttds)

Binder | pKd
KLVIKTETTV [RASSF6, Q6ZTQ3] | below the threshold

molecular target: Q96FS4; assay: holdup assay; parameters: key: below the threshold = too weak to quantify, mostly under pKd 3.1 to 4; details: plain residues with an end cap or a label only (N-terminal biotin on a linker: ttds)

Binder | pKd
KLVIKTETTV [RASSF6, Q6ZTQ3] | below the threshold

molecular target: Q96JY6; assay: holdup assay; parameters: key: below the threshold = too weak to quantify, mostly under pKd 3.1 to 4; details: plain residues with an end cap or a label only (N-terminal biotin on a linker: ttds)

Binder | pKd
KLVIKTETTV [RASSF6, Q6ZTQ3] | below the threshold

molecular target: Q9NPB6; assay: holdup assay; parameters: key: below the threshold = too weak to quantify, mostly under pKd 3.1 to 4; details: plain residues with an end cap or a label only (N-terminal biotin on a linker: ttds)

Binder | pKd
KLVIKTETTV [RASSF6, Q6ZTQ3] | below the threshold

molecular target: SCRIB_4, Q14160; assay: holdup assay; parameters: key: below the threshold = too weak to quantify, mostly under pKd 3.1 to 4; details: plain residues with an end cap or a label only (N-terminal biotin on a linker: ttds)
Sequence (Q14160 1095-1204): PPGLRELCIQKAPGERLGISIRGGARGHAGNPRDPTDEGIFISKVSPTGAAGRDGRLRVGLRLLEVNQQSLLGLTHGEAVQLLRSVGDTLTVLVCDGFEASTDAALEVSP

Binder | pKd
KLVIKTETTV [RASSF6, Q6ZTQ3] | below the threshold
SRSRRRETAL [HPV33-E6, P06427] | 4.24

molecular target: T11, SHROOM3, Q8TF72; assay: holdup assay; parameters: key: below the threshold = too weak to quantify, mostly under pKd 3.1 to 4; details: plain residues with an end cap or a label only (N-terminal biotin on a linker: ttds)

Binder | pKd
KLVIKTETTV [RASSF6, Q6ZTQ3] | below the threshold
SRSRRRETAL [HPV33-E6, P06427] | below the threshold

molecular target: T12, USH1C_2, Q9Y6N9; assay: holdup assay; parameters: key: below the threshold = too weak to quantify, mostly under pKd 3.1 to 4; details: plain residues with an end cap or a label only (N-terminal biotin on a linker: ttds)

Binder | pKd
KLVIKTETTV [RASSF6, Q6ZTQ3] | below the threshold
SRSRRRETAL [HPV33-E6, P06427] | below the threshold
